Experimental data: patent US5834428A, “Glucagon-like peptide-2 and its therapeutic use” (1149336 Ontario Inc., priority 1996, dated 1998)
“And” between values parts separate entries of the source, which are not always exact repeats. Identical values can stand only once. Ends that are not written are not given here.

Tests used:
[1] = Weight of mice during 10-day peptide treatment (Example 1); type: in vivo; settings: individual mice
Experimental: (§1) In a first experiment designed to investigate the effect of glicentin on small bowel growth, two groups of six mice (8 week, CD1 females from Charles River Laboratories) were treated as follows. Each mouse received 41.5 μg injections every 12 hours for 10 days. The injections were delivered subcutaneously in a final volume of 16% gelatin, with 0.5 cc injected subcutaneously every 12 hours. […] Control mice received 0.5 cc of 16% gelatin solution, but no peptide, every 12 hours. Mice were fed standard rat chow with free access to food and water, until 12 hours prior to sacrifice, at which time food was withheld, and water only was given. The weight of the small bowel was ascertained by excising the entire small bowel, and removing the stomach (proximal end) and appendix/cecum/large bowel (distal end). The remaining small bowel was cleaned with saline to remove feces, and weighed.
(§2) Mice were injected with 0.5 ml of the 16% gelatin solution, without or with peptide (62.5 μg/dose). Four groups of four mice (8 week, CD1 females from Charles River Laboratories) were injected twice daily for 10 days.

[2] = Solubility in water; type: physicochemical; settings: preparation of injection solution
[3] = system: small bowel; assay: Small bowel weight in mice after 10 days of s.c. peptide in 16% gelatin (Example 1); type: in vivo; settings: for Small bowel weight Day 10: individual mice
Experimental: as §1, with “weighed. Results were as follows:” for “weighed.”
GLP-2 formulations for injection were prepared as follows: Gelatin was dissolved in warm water to a weight ratio of 16%, and the 50 mL solution was autoclaved and cooled to room temperature. A peptide solution was then separately prepared by mixing 5 mg of GLP-2 with water at a volume slightly less than 10 mL, and then adding 1N acetic acid in a volume (10-20 μL) sufficient to dissolve the peptide completely. The pH was then readjusted to about 7.0 by addition of an equal volume of 1N NaOH (10-20 μL), and the solution volume was then adjusted to 10 mL by addition of distilled water. To prepare the formulation for injection, the 10 mL peptide solution and the 50 mL solution of 16% gelatin were combined with mixing, and aliquots for injection were drawn into a 0.5 mL insulin syringe.
as §2

[4] = Complete autopsy after long term administration; type: in vivo, mice; settings: 5 μg once a day s.c. in 10% gelatin for 4, 8 or 12 weeks
Experimental: Effect of Long Term Administration: Rat GLP-2 in a 10% gelatin formulation was administered s.c. in a single dose of 5 μg once a day continuously for 4 weeks (panel A), for 8 weeks (panel B) or for 12 weeks (panel C). FIG. 5 illustrates GLP-2 mediated effects on small bowel weight (BW) and in the crypt plus villus heights (PJ, DJ and DI) in treated groups (T), relative to a control (C) receiving 10% gelatin alone. […] A similar response was noted also for the distal jejunum.

[5] = 62.5 μg/dose twice daily for 10 days in 16% gelatin
[6] = group of four mice, 62.5 μg/dose twice daily for 10 days in 16% gelatin
[7] = 41.5 μg s.c. every 12 hours for 10 days in 16% gelatin

| Molecule | Weight of Mice Day 10 [1, 5] | solubility in water [2] | Small bowel weight % body wt [3, 6] | Small bowel weight Average [3, 6] | Small bowel weight Day 10 [3, 5] | histological abnormalities at autopsy [4] | Weight of Mice Day 10 [1, 7] | intestinotrophic effect ([3]; 41.5 μg s.c. every 12 hours for 10 days) | Small bowel weight Day 10 [3, 7] |
| --- | --- | --- | --- | --- | --- | --- | --- | --- | --- |
| GLP-1: human GLP-1 (7-36 amide), custom synthesized by tBoc-based solid phase approach [reference compound] | 24.8 gm and 22.8 gm and 26.5 gm | relative greater solubility in water | 5.26 ± .2 % body wt | 1.33 ± .04 gm | 1.4 gm and 1.3 gm and 1.2 gm |  |  |  |  |
| HADGSFSDEMNTILDNLATRDFINWLIQTKITD [rat GLP-2] | 23.7 gm and 25.7 gm and 27.1 gm and 25.4 gm |  |  |  |  | no histological abnormalities found |  |  |  |
| Glicentin: glicentin (rat), proglucagon gene-derived peptide (peptide, UniProt P06883 21-89, looked up, Glicentin, glicentin (rat), proglucagon gene-derived peptide) Glicentin: HAPQDTEENARSFPASQTEPLEDPDQINEDKRHSQGTFTSDYSKYLDSRRAQDFVQWLMNTKRNRNNIA |  | dissolved easily |  |  |  |  | 26.6 gm and 26.2 gm and 24.5 gm and 24.7 gm and 25.8 gm | modest | 1.6 gm and 1.7 gm and 1.3 gm and 1.9 gm |
